# Measured values published in US7070974B1, “Metalloproteases of the neprilysin family” (Universite de Montreal, priority 1999, dated 2006).
# Starred links: 1 amine or outer side, 2 acyl side, 3 side chain; linkers in the order of their positions; H or OH if unused. Non-standard residues stand in square brackets, D forms with d. No end group written: not given here. Tyr(3,5-3H) = [3H]c1cc(C[C@H](N[*:1])C(=O)[*:2])cc([3H])c1O[*:3]
# Columns and labels:
# Format in all cases: biochemical
# NL1 = biological target: T1, NL1 (Mus musculus, UniProt Q9JLI3); experiment: NL-1 enzymatic activity assay with (Tyrosyl-[3,5-3H])(D-Ala2)-Leu5-enkephalin as substrate; design: The soluble form of NL-1 was assayed for activity; made in house; host or cells: CHO cells (section 1, pcDNA3-RSV) and HEK 293 cells (section 2, pCDNA3/RSV)
# T1 sequence (Q9JLI3 63-765 limits assumed): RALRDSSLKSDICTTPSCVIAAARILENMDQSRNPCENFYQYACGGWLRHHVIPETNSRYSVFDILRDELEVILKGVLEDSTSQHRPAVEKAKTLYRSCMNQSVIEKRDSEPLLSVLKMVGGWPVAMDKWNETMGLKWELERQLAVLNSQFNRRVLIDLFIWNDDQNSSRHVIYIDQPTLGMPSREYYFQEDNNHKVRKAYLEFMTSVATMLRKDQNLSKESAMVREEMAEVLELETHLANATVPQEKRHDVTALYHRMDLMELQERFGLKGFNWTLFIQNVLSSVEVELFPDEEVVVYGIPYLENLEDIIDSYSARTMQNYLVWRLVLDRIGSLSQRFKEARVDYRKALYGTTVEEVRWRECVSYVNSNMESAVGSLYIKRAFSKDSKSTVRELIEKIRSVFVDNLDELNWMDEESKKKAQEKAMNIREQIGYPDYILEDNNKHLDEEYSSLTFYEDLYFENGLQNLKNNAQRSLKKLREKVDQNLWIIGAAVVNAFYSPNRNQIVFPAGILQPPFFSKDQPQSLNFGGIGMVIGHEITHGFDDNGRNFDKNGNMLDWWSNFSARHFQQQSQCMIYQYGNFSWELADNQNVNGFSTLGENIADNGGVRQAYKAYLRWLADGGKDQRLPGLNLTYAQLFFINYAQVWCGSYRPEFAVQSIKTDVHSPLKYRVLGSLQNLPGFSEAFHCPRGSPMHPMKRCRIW
# Method: (§1) Extracts of cellular proteins and culture media were assayed for enzymatic activity. Two tests were performed. The first used [^3H]-Tyr-(D)Ala2-Leu-enkephalin as substrate and was performed according to Lemay et al., (1989). The second used bradykinin as substrate and was performed as described by Raut et al. (1999).
# NL1 activity was monitored and compared to sNEP activity using (Tyrosyl-[3,5-^3H])(D-Ala2)-Leu5-enkephalin (50 Ci/mmol) (Research Products International Inc.), as already described (Dion 1995; Devault 1988). Km values were determined by the isotope-dilution method.
# soluble form of NL-3 = biological target: T2, soluble form of NL-3 (Homo sapiens, UniProt O95672); experiment: Soluble NL-3 activity assay with [3H]-Tyr-(D)Ala2-Leu-enkephalin as substrate; conditions: soluble NL-3 from the NL-1 amino-terminal fusion
# T2 construct: the ectodomain of NL-3 (from the third cysteine to the end) was spliced to NL-1 amino-terminal domain; mouse NL-1 amino-terminal domain (initiator methionine to the furin site) (N); made in house; host or cells: COS-1 and HEK 293 cells transfected with pRcCMV; spent culture medium
# T2 sequence (O95672 83-775 limits assumed): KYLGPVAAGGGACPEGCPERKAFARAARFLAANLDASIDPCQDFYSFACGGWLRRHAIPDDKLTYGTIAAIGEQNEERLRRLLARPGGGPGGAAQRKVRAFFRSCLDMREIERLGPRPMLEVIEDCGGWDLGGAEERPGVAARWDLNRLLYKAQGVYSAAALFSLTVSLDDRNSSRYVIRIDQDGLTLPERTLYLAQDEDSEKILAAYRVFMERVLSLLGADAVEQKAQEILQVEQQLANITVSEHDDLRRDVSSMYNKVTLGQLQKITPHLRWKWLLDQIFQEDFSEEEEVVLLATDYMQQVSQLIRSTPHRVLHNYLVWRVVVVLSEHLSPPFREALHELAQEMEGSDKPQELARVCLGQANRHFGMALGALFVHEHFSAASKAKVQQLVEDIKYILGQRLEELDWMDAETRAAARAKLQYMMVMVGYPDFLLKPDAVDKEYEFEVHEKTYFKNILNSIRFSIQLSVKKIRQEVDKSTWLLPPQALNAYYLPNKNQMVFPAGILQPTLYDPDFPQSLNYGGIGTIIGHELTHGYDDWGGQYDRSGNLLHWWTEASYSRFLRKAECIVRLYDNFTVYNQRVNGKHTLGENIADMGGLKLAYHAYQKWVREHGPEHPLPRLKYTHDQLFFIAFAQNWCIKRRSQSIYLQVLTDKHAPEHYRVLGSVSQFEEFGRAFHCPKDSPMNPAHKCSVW
# Method: as §1
# The observation that NL-1 ectodomain was secreted, possibly through cleavage of the transmembrane segment by furin, raised the possibility to promote secretion of exogenous proteins that could be spliced to NL-1 amino-terminal domain (from initiator methionine to the furin site). To test this hypothesis, the ectodomain of NL-3 (from the third cysteine to the end) was spliced to NL-1 amino-terminal domain using a PCR strategy and the recombinant DNA cloned in expression vector pRcCMV. The fusion protein was expressed by transfection of the vector in COS-1 and HEK 293 cells. The culture media of transfected cells was analyzed by immunoblotting using the mouse antiserum against NL-3.
# [1] = biological target: T3, sNEP (engineered soluble form of NEP) (Oryctolagus cuniculus, UniProt P08049); experiment: sNEP enzymatic activity assay with (Tyrosyl-[3,5-3H])(D-Ala2)-Leu5-enkephalin as substrate; conditions: substrate of sNEP; isotope-dilution method
# T3 construct: Fusion of a cleavable signal peptide to the ectodomain of neutral endopeptidase; cleavable signal peptide of proopiomelanocortin (replaces cytosolic and transmembrane domains) (N, cleaved yes); made in house; host or cells: LLC-PK1 cells transfected with pRcCMV-sNEP; concentrated culture medium
# T3 sequence (P08049 52-750 limits assumed): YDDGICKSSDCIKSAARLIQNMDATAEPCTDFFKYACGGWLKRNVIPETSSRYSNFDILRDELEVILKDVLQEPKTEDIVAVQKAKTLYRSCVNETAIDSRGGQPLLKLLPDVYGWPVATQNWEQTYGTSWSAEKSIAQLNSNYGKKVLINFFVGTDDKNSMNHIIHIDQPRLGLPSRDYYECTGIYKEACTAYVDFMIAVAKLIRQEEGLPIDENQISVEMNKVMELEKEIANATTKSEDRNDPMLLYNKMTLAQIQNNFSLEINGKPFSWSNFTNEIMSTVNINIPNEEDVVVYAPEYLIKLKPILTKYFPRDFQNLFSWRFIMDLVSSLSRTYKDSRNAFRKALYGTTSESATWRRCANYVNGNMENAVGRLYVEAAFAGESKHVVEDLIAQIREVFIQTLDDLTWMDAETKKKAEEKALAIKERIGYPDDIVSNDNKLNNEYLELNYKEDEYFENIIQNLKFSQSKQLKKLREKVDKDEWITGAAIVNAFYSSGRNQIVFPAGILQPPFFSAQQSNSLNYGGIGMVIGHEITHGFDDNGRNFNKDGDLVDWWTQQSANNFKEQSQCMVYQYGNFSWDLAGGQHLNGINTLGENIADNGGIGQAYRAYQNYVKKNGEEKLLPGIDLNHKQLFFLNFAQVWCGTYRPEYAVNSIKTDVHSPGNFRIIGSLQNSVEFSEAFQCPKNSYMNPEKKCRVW
substance,measurement,setting,value
"(Tyrosyl-[3,5-^3H])(D-Ala2)-Leu5-enkephalin ([Tyr(3,5-3H)][dA]GFL) [D-Ala2-Leu5-enkephalin]",Km value of NL1 relative to NEP,NL1; fold lower for NL1 than NEP,4- to 5 fold
same,Km,"NL1; substrate of soluble NL-1, isotope-dilution method",18 µM
same,activity of soluble NL-3 on the substrate,soluble form of NL-3,No activity
same,Km,[1],73 µM
